{"source": "paper PMC5274714", "origin": "cited, not measured here", "molecular_target": "human serum albumin (Homo sapiens) (UniProt P02768)", "assay": "SPR"}
{"substance": "protein G ABD3 (from UniProt P19909)", "values": [{"measurement": "Kd", "result": 4, "unit": "nM"}]}
